test: soluble on expression in E. coli; label from the status in PepcDB or PDB records

| Sequence | soluble on expression in E. coli |
| --- | --- |
| MTAMDHQFPSWIVVNESTSISREQLNYLLETYNVFYENQKNLHILYGQTEDGQLIVEGMLDIFWGVKRPIQLKIQDEKQISSFDLLNTPETFSSKGRMTRWGEFDDLYRISELDRTHVLASEARHSPEDYLSYHSTLTPYADEEPESPLLYRTMSEAESPLLYRTMSEAALVRKRMRAPEMYRKDRMGVLSNHRASINGHVYDHETSIFTPTFGSETKVRANSIMRTEEVIKQLLQKFKIENSPRDFALYIIFGTGEQRKLKKTDVPLLQRLLQGPSKSNARIFLMDKDAEEISRDVAPYINFHFSFLESILQRLDEEEKMEIERIMAKFNTERAFILKCLQSKQAAKTETTV | soluble |
| GSDEKRLHFGNGHLKLPGLRTYVDPHTYEDPTQTVHEFAKELDATNISIDKVVGAGEFGEVCSGRLKLPSKKEISVAIKTLKVGYTEKQRRDFLGEASIMGQFDHPNIIRLEGVVTKSKPVMIVTEYMENGSLDSFLRKHDAQFTVIQLVGMLRGIASGMKYLSDMGYVHRDLAARNILINSNLVCKVSDFGLSRVLEDDPEAAYTTRGGKIPIRWTSPEAIAYRKFTSASDVWSYGIVLWEVMSYGERPYWEMSNQDVIKAVDEGYRLPPPMDCPAALYQLMLDCWQKDRNNRPKFEQIVSILDKLIRNPGSLKIITSAAARPSNLLLDQSNVDITTFRTTGDWLNGVWTAHCKEIFTGVEYSSCDTIAKIS | soluble |
| DLRRQLRKAVMDHVSDSFLETNVPLLVLIEAAKNGNEKEVKEYAQVFREHANKLIEVANLACSISNNEEGVKLVRMSASQLEALCPQVINAALALAAKPQSKLAQENMDLFKEQWEKQVRVLTDAVDDITSIDDFLAVSENHILEDVNKCVIALQEKDVDGLDRTAGAIRGRAARVIHVVTSEMDNYEPGVYTEKVLEATKLLSNTVMPRFTEQVEAAVEALSSDPAQPMDENEFIDASRLVYDGIRDIRKAVLMI | soluble |
| MFRSVVVSVRQPAVAGYFYPDDPLTLKQTVLNFLDQAPIHKPAPKAILVPHAGYVYSGAVAASAYASLRDKKDTINKIILLGPAHRLYFKGIAYDPVDKFATPLGEIDQDKELLTQIIDLPYVYSLPEAHQNEHCLEVQLPFCQMIFSKFKILPLVIGETNPQDVARLIARIWGGDDTLLIISSDLSHYLPYHIAQREDKKTCLSIDTLNGEEILHDAACGYFPLRGFLYFGRQNHVYSRLLDLRNSGDTAGDKERVVGYAAYHFYQKLKFSEHCADELKYIAKETIRLQTEENKALTINYNDYSQLLQMRVPTFITLKKNGMLRGCMGSLTTKDPLAENIIYNSIRAASADPRFPQIKPCELKELSLTISLIKPLSPLHFDSEEELKSQLQIGLDGLVLICGPYQATFLPSVWESVKTKDEFINHLKLKMGLSENFWSSEMRALRYATEIIKLEHHHHHH | not soluble |
| MSLIPATLLLVEDDPDQRIIMQRKLQQQGYKVICAENGEEAVDLYNNNTIDLVLMDAQLPGMDGFEACFLITHTETGSRCPVMMITSLENSESVDRAFQVGAEEYVPKPIHWKVLMQRIRRQIKSRRVHQEGHHHHHH | soluble |
| ALVGDNLEQIDARLVNSLPLFKDQEGRDVNVRVGRYGPYLERQVGVSEDGEPEYQRANLSDSTTPDELTLELAEKLFATPQSGRELGRNPKNNRMIVAKEGRFGPYVTELVNDDERTEVEAKAEEIVAAEREAEDLQRAAEGKRAKNWGTKTAAAQKEKRIAQIIEETLKPSTASLFKTMEPSSVTLDEALQLLALPREVGVDPSDNEVITAQNGRYGPYLKKGSDSRTLASEDQIFSITLDEARRIYAEPKRRGRGATSQSVIKQLGDNDVSGKPMSVRDGRFGPYVTDGTTNASLRRGDDPTQLTEARANELLSERRAKEAADGGSSKKATKKASKKTTKRVAKAGARKKK | not soluble |
| ETQQRCVTATDYDTFVSERFGSIIQAVQTFTDSTKPGYAFIAAKPKSGLYLTTVQREDIKNYLKDYNLAPITPSIISPNYLFIKTNLKVTYALNKLQESEQWLEGQIIDKIDRYYTEDVEIFNSSFAKSKMLTYVDDADHSVIGSSATIQMVREVQNFYKTPEAGIKYNNQIKDRSMESNTFSFNSGRKVVNPDTGLEEDVLYDVRIVSTDRDSKGIGKVIIGPFASGDVTENENIQPYTGNDFNKLANSDGRDKYYVIGEINYPADVIYWNIAKINLTSEKFEVQTIELYSDPTDDVIFTRDGSLIVFENDLRPQYLTIDLEPISQLEHHHHHH | soluble |
| GSTAIGINDTYSEVKSDLAQQKAEMELSDLIRKGYHKALVKLKLKKNTVDDISESLRQGGGKLNFDELRQDLKGKGHTDAEIEAIFTKYDQDGDQELTEHEHQQMRDDLEKEREDLDLDHSSL | soluble |
| MGSDKIHHHHHHMTTRVIALDLDGTLLTSKKTILPASLEALARAREAGYQVIVVTGRHHVAIHPFYQALALDTPAICCNGTYLYDYHAKKVLAADPMPVEQAVSLTAMLAKQQIHGLAYVDDAMLYEHPTGHVIRTRNWAQALPEDQRPVFAQVDSLAQAVREVNAVWKFALTDDDIPRLQRFAQQVGETLGLECEWSWHDQVDIARAGNSKGKRLAQWVADQGLSMQDVMAFGDNYNDLSMLEAAGTGVAMGNAVDEVKARANIVIGDNESTSIAEFIYRQLL | not soluble |
| MFKPELLSPAGTLKNMRYAFAYGADAVYAGQPRYSLRVRNNEFNHENLQLGINEAHALGKKFYVVVNIAPHNAKLKTFIRDLKPVVEMGPDALIMSDPGLIMLVREHFPEMPIHLSVQANAVNWATVKFWQQMGLTRVILSRELSLEEIEEIRNQVPDMEIEIFVHGALCMAYSGRCLLSGYINKRDPNQGTCTNACRWEYNVQEGKEDDVGNIVHKYEPIPVQNVEPTLGIGAPTDKVFMIEEAQRPGEYMTAFEDEHGTYIMNSKDLRAIAHVERLTKMGVHSLKIEGRTKSFYYCARTAQVYRKAIDDAAAGKPFDTSLLETLEGLAHRGYTEGFLRRHTHDDYQNYEYGYSVSDRQQFVGEFTGERKGDLAAVAVKNKFSVGDSLELMTPQGNINFTLEHMENAKGEAMPIAPGDGYTVWLPVPQDLELNYALLMRNFSGETTRNPHGK | soluble |
| MINDDILAHARQCAPAESCGYVVRTAQGERYFPCENLSAEPTMYFRISPEDYLNARNRGDIVALVHSHPDGKPCLSSADRTLQIQSGLDWWLVCDNRIHKFRCVPHLTGRQFEHGVTDCYTLFRDAYHLAGIDMPDFDREDDWWSQGKSLYLDHLEAAGFYRVNPEDAQPGDVLICCFGSPTPNHAAIYCGNGELLHHIPEQLSKREGYNDKWQRRTHSIWRHRQWCESAFTGIYNDLESASASA | not soluble |
| MGSDKIHHHHHHMRTYRSFKMFTNSSQGVRKVRVGIAGLGTVGGSIYRILKERGNEIEKRIGEKFIISKVINRSPQKYELLGVPKEEIAFDFDDLILNSDVVVEAIGGTDVAVDLVRRALELGRIVVTPNKNLISEYGNEFSEYIKKRKLFFEASVGGGIPIISLLQDYLIFQKVTRIRGIMNGTTNYILTEMSKGRHFEEVLKEAQELGYAEADPTNDIEGYDVAYKVSVLAGVVTGRFPGINSVQFEGITRIDPEYLKEIVRSGKKLKLIGELDFSTNRYEVRLREVTPEDPFFNVDGVDNAIEVSTDLAGDFLLKGRGAGGYPTASAVIADLFRVAKYKVLGGAEKFSVVVMKFGGAAISDVEKLEKVAEKIIKRKKSGVKPVVVLSAMGDTTDHLIELAKTIDENPDPRELDLLLSTGEIQSVALMSIALRKRGYKAISFTGNQLKIITDKRYGSARIIDINTDIISRYLKQDFIPVVAGFQGITETGDITTLGRGGSDLTAIALAYSLGADLCELYKDVDGVYTADPRIVKDARVIKELSWEEMIELSRHGAQVLQARAAEFARKYGVKVLIKNAHKETRGTLIWEGTKVENPIVRAVTFEDGMAKVVLKDVPDKPGVAARIMRTLSQMGVNIDMIIQGMKSGEYNTVAFIVPESQLGKLDIDLLKTRSEAKEIIIEKGLAKVSIVGVNLTSTPEISATLFETLANEGINIDMISASSSRISVIIDGKYVEDAVKAIHSRFELDRE | not soluble |
| FISSRANVDDLKSIENKSDFVATENMPNYVKGAFISMEDERFYKHHGFDIKGTTRALFSTISDRDVQGGSTITQQVVKNYYYDNERSFTRKIKELFVARKVEKQYSKNQILSFYMNNIYYGDNQYTVEGAANHYFGVTVDKNNSNMSQISVLQSAILASKVNAPSVYD | not soluble |
| MGETTAEAKKDPSSIRVVALDWRYEEILHALGITPVGIVEIGKSKEPQTLKGELEGVTSVGQAKQPNLEVIQSLEPDLILASPTRQAAIMDQLKEIAPTHAYGDTSYTEVLDAMDDIATKVGAEDKAKEVRTRIESKIAQAKNKVEPGTRTALIGWSKNTLYTWVKDSFAGSLLTAAGYEYGYDGEKSAIESKTDVAELTGDKLPEMKLDVMYLYNDIEGFRSSPYADVVSNIVDVEQDTWSRSRGPLAAEAMLDQIINSLEHHHHHH | not soluble |
| GMDISGRDVETRLTLAREFMSGVDELPTVPDIVLRIAGKLNDPDVAIDEVADLLLQDQVLTARVVHLANSPLYSAARPISSIRDAVIYLGLDLLREAIFTCAIVDLFKTGKGPLNRSTLWAHSLGVARIAKLIAERTGFLNPVNVYVAGLLHDVGEVFINFFRGKEFSQVVTLVDEEKITFGQAEERLFGTSHCEVGFALAKRWSLNEFICDTILYHHDIEAVPYKQAAIVAMVAFADEYCTLRRLGFEGHKPVDSVRTLLENHPSWGVIRRSLGGSDFDEKLIVAELDSSIVEIRAAVDELFLL | soluble |
| MKKFDGVIFDMDGLLFDTELIYYTSTQKVADAMGLPYSKEVYLDYVGISDEEVQENYRRIYASYGHDTVEEFIRRSYDDTLQEFRSGNVPLKPGVVEFLDFLDDQKIPRLVASSNVRPAIEMLLSHAGIQDRFVGIVSAEDVKRAKPDPEIFQKARQLLGTEAPKTLIFEDSFHGVSAAHSAGIPVIMVPDLLQPTEVIQEKTLHVLESLHQAPHYLK | not soluble |
| MFAMTSSAQSPLQQLGGTVVLAGAGKMGGALLTGWLAQGLDGGDVVVIEPHPTEEIAALSARGVRLNASAGDVGAVSTLVVAVKPQMFAEAAAALRGYVGPSTLVVSIMAGKPIAALSEQLGGHVVRAMPNTPAAIGRGITVAVAAGNVTAAQRGIADALLRATGGVEWVDDEALIDAVTAVSGSGPAYVFLLAEELARAGVEAGLPEGLAMTLARATVAGSGELLHRSDLDAATLRKNVTSPGGTTAAALEVLMANDGFRPLLTRAVAAATKRSKELAKAAALEHHHHHH | soluble |
| MAYKFLSEDWIKAYAEEWNKNEKLMNDLKNFSASIKYYVEGKENDAVELIIEKGKAVSAGKADPNKRYDFELWASLENWKKLATGEMGPRAAMLTKRLKFKGSMITAMKYMGAFEESLKMMGRVPTVWDV | not soluble |
